Reference: PMC3341331 (2012)
Changes are numbered by the printed parent chain.

Target: T1, recombinant E protein domain III of DENV-2, flag and hexahistidine tagged (dengue virus type 2)
T1 chain: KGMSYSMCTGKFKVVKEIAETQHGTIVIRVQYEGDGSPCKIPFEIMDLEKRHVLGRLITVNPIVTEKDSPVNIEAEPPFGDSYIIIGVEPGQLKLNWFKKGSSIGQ
Experiment: SPR

B1: humanized DB32-6 monoclonal antibody (antibody, V domains shown)
VH: EVQLQQSGAELVKPGASVNLSCTASGFNIKDTYIHWVKQRPEQGLEWIGRIDPENGNAKYDPNFQAKATIAADTSSNTAYLQLSSLTSEDTAVYYCVRTGSFWYFDVWGQGTLVTVSS
VL: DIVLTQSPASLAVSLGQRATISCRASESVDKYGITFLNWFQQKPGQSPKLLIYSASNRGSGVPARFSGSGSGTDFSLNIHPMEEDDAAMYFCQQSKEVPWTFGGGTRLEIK
Q: How did the koff turn out when B1 was run?
A: Its koff is 1.7e-06 s⁻¹.

B2: murine DB32-6 monoclonal antibody (antibody)
chain 1: B1 VH with E1Q, N19K, E42G, A71T, Q82H, C96S, Q110A, L113T
chain 2: not shown
Q: B2 was tested. Which koff did it give?
A: The koff was 1.7e-06 s⁻¹.
